Data on one substance can be found in publication PMC5662623.

One assay has as its target adaptor protein AP-1. Kind of assay: GST pull-down from rat brain lysate, immunoblot band intensity quantification (anti-adaptin γ). Particulars: at least three independent experiments; parent: est. 1.0; read off a plot.
The next assay has as its target adaptor protein AP-3. Description: GST pull-down from rat brain lysate, immunoblot band intensity quantification (anti-β-NAP). Particulars: at least three independent experiments; parent: est. 1.0; read off a plot. (A western blot detects proteins with antibodies after separation by electrophoresis.)

As to “GST fusion of the WT VGLUT2 C-terminus F518G; I519G”, the ratio to parent with adaptor protein AP-1 amounted to 0.59; in the assay with adaptor protein AP-3, 0.33.
